Legend:
[1] = target: mouse TMEM106B (mouse) (UniProt Q80X71); assay: FACS Neuro2a
[2] = target: mouse TMEM106B (mouse) (UniProt Q80X71); assay: FACS, HEK293 transfectants

B1: anti-TMEM106B antibody TM-4 (antibody, V domains shown)
VH: EVQVQQSGPVLVKPGASVKMSCKASGYTFTDYYMNWVKQSHGKNLEWIGVINPYNGGTSYHQKFKGKATLTVDKSSSTAYMELNSLTSEDSAVYYCARAATVVAGFDYWGQGTTLTVSS
VL: QAVVTQESALTTSPGETVTLTCRSSTGAVTTSNYANWVQEKPDHLFTGLIGGTNNRAPGVPARFSGSLIGDKAALTITGAQTEDEAIYFCVLWYSNHLVFGGGTKLTVL
**Q.** How did the MFI [1] turn out when B1 was run?
**A.** 325

**Q.** And the fold-change over parental HEK293 [2]?
**A.** 1.97 fold

From patent US20230303681A1
